Test results published in patent US20240239894A1, “THERAPEUTIC BINDING MOLECULES” (MedImmune Limited, priority 2020, published 2024).
Entries after “also recorded” stand apart in the source; their conditions may differ.

T1: human B7-H4 (Homo sapiens, UniProt Q7Z7D3)
T1 construct: Human B7H4 ECD; FlagHis10 or FcHis6 (either; equivalent data); made in house
T1 sequence (Q7Z7D3 25-259 limits assumed): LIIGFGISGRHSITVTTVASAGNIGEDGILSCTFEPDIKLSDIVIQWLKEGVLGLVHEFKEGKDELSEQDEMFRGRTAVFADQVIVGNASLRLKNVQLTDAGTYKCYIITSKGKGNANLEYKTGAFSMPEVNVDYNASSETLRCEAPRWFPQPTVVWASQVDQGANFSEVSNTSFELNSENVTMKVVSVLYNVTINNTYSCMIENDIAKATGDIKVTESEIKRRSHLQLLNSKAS

B1: E02-GL: germlined ZY0EQD-E02, VH SEQ ID NO: 45, VL SEQ ID NO: 34; antibody intermediate of E02-GL-SG3932 (antibody, V domains shown)
VH: QVQLQQWGAGLLKPSETLSLACTVYGGSFSGYYWNWIRQPPGKGLEWIGEINHSGSTSYNPSLKSRVTISVDTSKNQFSLKLSSVTAADTAVYYCARVLYNWNVDSWGQGTLVTVSS
VL: DIQMTQSPSSLSASVGDRVTITCRASQDIRNDVGWYQQKPGKAPKRLIYAASRLQSGVPSRFSGSGSGTEFTLTISSLQPEDFATYYCLQHNSYPRTFGQGTKVEIK
B2: E02-GL-SG3249: clone E02-GL (Maia heavy chain backbone) conjugated to the PBD cytotoxin SG3249 (conjugate)
heavy: QVQLQQWGAGLLKPSETLSLACTVYGGSFSGYYWNWIRQPPGKGLEWIGEINHSGSTSYNPSLKSRVTISVDTSKNQFSLKLSSVTAADTAVYYCARVLYNWNVDSWGQGTLVTVSSASTKGPSVFPLAPSSKSTSGGTAALGCLVKDYFPEPVTVSWNSGALTSGVHTFPAVLQSSGLYSLSSVVTVPSSSLGTQTYICNVNHKPSNTKVDKRVEPKSCDKTHTCPPCPAPELLGGPSCVFLFPPKPKDTLMISRTPEVTCVVVDVSHEDPEVKFNWYVDGVEVHNAKTKPREEQYNSTYRVVSVLTVLHQDWLNGKEYKCKVSNKALPAPIEKTISKAKGQPREPQVYTLPPSREEMTKNQVSLTCLVKGFYPSDIAVEWESNGQPENNYKTTPPVLDSDGSFFLYSKLTVDKSRWQQGNVFSCSVMHEALHNHYTQKSLSLSPGK
light: DIQMTQSPSSLSASVGDRVTITCRASQDIRNDVGWYQQKPGKAPKRLIYAASRLQSGVPSRFSGSGSGTEFTLTISSLQPEDFATYYCLQHNSYPRTFGQGTKVEIKRTVAAPSVFIFPPSDEQLKSGTASVVCLLNNFYPREAKVQWKVDNALQSGNSQESVTEQDSKDSTYSLSSTLTLSKADYEKHKVYACEVTHQGLSSPVTKSFNRGEC

Assays:
[1] = test system: HT29-huB7-H4 Clone 26; assay: Live cell imaging internalization; type: cell-based, human; conditions: 5 μg/mL Alexa Fluor 568 conjugate
Description: (§1) The internalization and intracellular trafficking properties of antibody E02-INT was evaluated using a quantitative live cell imaging assay in MX-1 human breast cancer cells and HT29 huB7-H4 Clone 26 human colon cancer cells overexpressing B7-H4.

[2] = test system: MX-1; assay: Live cell imaging internalization; type: cell-based, human; conditions: 5 μg/mL Alexa Fluor 568 conjugate
Description: as §1

[3] = test system: MX-1 breast cancer xenograft; assay: Xenograft efficacy; type: in vivo, CB-17 SCID mice; conditions: 10 mg/kg
Description: The antitumor activity of antibody intermediate E02-INT and E02-GL-SG3932 was investigated in human tumor xenograft mouse models using immunodeficient CB-17 SCID mice.
The effect of E02-GL-SG3932, the isotype-matched control ADC NIP228-SG3932, and E02-INT, the antibody intermediate of E02-GL-SG3932 was evaluated in the MX-1 breast cancer xenograft model. Animals were injected SC with MX-1 cells and after tumors grew in volume to a mean of 270 mm3, animals were randomized and each mouse received an IV injection of test or control articles.

[4] = test system: OVCAR4; assay: E02-GL MESF on cell line; type: cell-based, human
[5] = molecular target: T1, human B7-H4; assay: ELISA comparison with 1D11; type: binding; conditions: E02-GL compared with 1D11
Description: The binding of the anti-B7-H4 antibodies (e.g. intermediate ZY0EQD-E02-GL and anti-B7-H4 mAB D11) to B7-H4 (e.g. human and mouse B7-H4) was measured by ELISA. Recombinant B7-H4-Fc (e.g. Human B7-H4-Fc and mouse B7-H4-Fc) proteins were diluted into DPBS to give 5 ug/ml solution. 50 μL of the diluted stocks was then added Nunc Maxisorp 96 well plates. 50 μL/well DPBS was added to control wells. The antigens were allowed to adsorb to the plates overnight at 4° C., washed once with DPBS and incubated with blocking buffer (3% w/v Marvel in DPBS) at room temperature for 1 hour. The plates were then washed once with PBS and incubated for 1 hour with 6.4 pM-100 nM anti-B7-H4 antibody (e.g. intermediate ZY0EQD-E02-GL or anti-B7-H4 mAb D11) diluted in DPBS containing 1% BSA, 0.3% Triton X-100. The plates were then washed three times with PBS containing 0.1% Tween and incubated with peroxidase-conjugated goat anti-human light chain antibody (Sigma Aldrich, Poole, UK) for 1 hour at room temperature. The plates were then washed five times with PBS containing 0.1% Tween. Following a 5-minute incubation with TMB peroxidase substrate, the reaction was stopped by the addition of 0.5 M H2SO4. Absorbance at 450 nm (A450) was measured using an Envision multilabel plate reader (Perkin Elmer, Seer Green, UK). […]

[6] = test system: T168; assay: PDX model; type: in vivo; conditions: T168, Breast (HR+); 0.3 mg/kg vs vehicle
Source text: (§2) Patient derived xenograft models were generated using cancer cell lines with varying levels of B7-H4 expression, as outlined in Table 16. […] “E02-GL” antibody has the CDR/VH sequences (e.g. corresponds to) of ZY0EQD-E02 (“GL” means the antibody has been germlined).

[7] = test system: HBCx-10; assay: PDX model; type: in vivo; conditions: HBCx-10, Breast (Triple negative); 0.3 mg/kg vs vehicle
Source text: as §2

[8] = test system: CTG-012; assay: PDX model; type: in vivo; conditions: CTG-012, Breast (Triple negative); 0.3 mg/kg vs vehicle
Source text: as §2

[9] = test system: T272; assay: PDX model; type: in vivo; conditions: T272, Breast (HR+); 0.3 mg/kg vs vehicle
Source text: as §2

[10] = test system: HBCx-11; assay: PDX model; type: in vivo; conditions: HBCx-11, Breast (Triple negative); 0.3 mg/kg vs vehicle
Source text: as §2

[11] = test system: CTG-1106; assay: PDX model; type: in vivo; conditions: CTG-1106, Breast (Triple negative); 0.3 mg/kg vs vehicle
Source text: as §2

[12] = test system: CTG-0992; assay: PDX model; type: in vivo; conditions: CTG-0992, Ovarian; 0.3 mg/kg vs vehicle
Source text: as §2

[13] = test system: CTG-052; assay: PDX model; type: in vivo; conditions: CTG-052, Breast (Triple negative); 0.3 mg/kg vs vehicle
Source text: as §2

[14] = test system: T330; assay: PDX model; type: in vivo; conditions: T330, Breast (Triple negative); 0.3 mg/kg vs vehicle
Source text: as §2

[15] = test system: CTG-1086; assay: PDX model; type: in vivo; conditions: CTG-1086, Ovarian; 0.3 mg/kg vs vehicle
Source text: as §2

[16] = test system: HBCx-9; assay: PDX model; type: in vivo; conditions: HBCx-9, Breast (Triple negative); 0.3 mg/kg vs vehicle
Source text: as §2

[17] = test system: HCC1954 tumour xenograft; assay: gamma H2AX immunohistochemistry in tumour xenograft; type: in vivo; conditions: up to 10 days following treatment
Description: Tumour xenograft models were generated (using HCC1954 cells), and treated with E02-GL-SG3249. “E02-GL” antibody has the CDR/VH sequences (e.g. corresponds to) of ZY0EQD-E02 (“GL” means the antibody has been germlined).
Immunohistochemistry was then performed to determine gamma H2AX (marker of double strand breaks) following treatment.

| Molecule | internalization half-life [1] | internalization half-life [2] | TGI [3] [%] | E02-GL MESF [4] | binding (affinity) to human B7-H4 by ELISA [5] | % Tumour Growth Inhibition (TGI) [6] [%] | % Tumour Growth Inhibition (TGI) [7] [%] | % Tumour Growth Inhibition (TGI) [8] [%] | % Tumour Growth Inhibition (TGI) [9] [%] | % Tumour Growth Inhibition (TGI) [10] [%] | % Tumour Growth Inhibition (TGI) [11] [%] | % Tumour Growth Inhibition (TGI) [12] [%] | % Tumour Growth Inhibition (TGI) [13] [%] | % Tumour Growth Inhibition (TGI) [14] [%] | % Tumour Growth Inhibition (TGI) [15] [%] | % Tumour Growth Inhibition (TGI) [16] [%] | gamma H2AX positive tumour cells [17] |
| --- | --- | --- | --- | --- | --- | --- | --- | --- | --- | --- | --- | --- | --- | --- | --- | --- | --- |
| B1 | 127 (±35 SD) minutes | 102 (±18 SD) minutes | −1 | 261,997 MESF | significantly better binding; also recorded: significantly stronger binding |  |  |  |  |  |  |  |  |  |  |  |  |
| B2 |  |  |  |  |  | 60 | 90 | 90 | 30 | 80 | 30 | 0 | 30 | 70 | 20 | 70 | Increased numbers of gamma H2AX positive tumour cells |
